This is an account of results in patent publication US20180346594A1.

The target of assay [1] is 16C3 antigen (human colorectal and pancreatic carcinoma-associated antigen, CPAA, recognized by the 16C3 antibody) (human). Description: FACS, AsPC-1 cells, 5 uL.
The target is the same in assay [2]. Kind of assay: FACS, HT-29 colorectal cells.
Assay [3] shares this target. Description: FACS, AsPC-1 pancreatic cells.
The target is the same in assay [4]. Description: FACS, LS174T colorectal cells.
The target is the same in assay [5]. Kind of assay: FACS, CFPAC-1 pancreatic cells.
Assay [6] has the same target. Description: FACS, AsPC-1 cells, 1 ug antibody.
Assay [7] has the same target. Kind of assay: FACS, AsPC-1 cells, 4 ng antibody.
The target is the same in assay [8]. Description: FACS, AsPC-1 cells, 20 ng antibody.
The target is the same in assay [9]. Description: FACS, AsPC-1 cells, 0.8 ng antibody.
Assay [10] shares this target. Description: FACS, AsPC-1 cells, 100 ng antibody.
Assay [11] has the same target. Description: FACS, AsPC-1 cells, secondary antibody only.
Assay [12] has the same target. Description: FACS, LS174T cells, secondary antibody only.
Assay [13] has the same target. Kind of assay: FACS, HT-29 colorectal cells, secondary antibody only.
For assay [14] the target is unchanged. Kind of assay: FACS, AsPC-1 pancreatic cells, secondary antibody only.
The target is the same in assay [15]. Description: FACS, LS174T colorectal cells, secondary antibody only.
The target is the same in assay [16]. Description: FACS, CFPAC-1 pancreatic cells, secondary antibody only.
The target is the same in assay [17]. Description: FACS, CFPAC-1 cells, secondary antibody only.

For the substance “16C3 mAb (murine monoclonal antibody, IgG1 heavy chain, kappa light chain)”, the values for the % AsPC-1 Cells Stained in assay [1] and in assay [6] were 81.4% and 89.5%, respectively. The mfi is 34 mfi in assay [1]; 78 mfi in assay [2]; 36 mfi in assay [3]; 59 mfi in assay [4]; 323 mfi in assay [5]; 138 mfi in assay [6]. Further, the % Cell Staining in assay [2] stood at 91%; in assay [3], 69.9%; in assay [4] it was 40.6%; in [5], 96.2%. Further, the % AsPC-1 tumor cell binding turned out to be 4.26% in assay [7], 47.9% in [8], 1.28% in assay [9] and 61.7% in assay [10]. For the same substance, the MFI in [7] is 52 MFI; in assay [8], 69 MFI; in assay [9], 615 MFI; in assay [10], 228 MFI.
In [11], “Goat anti-Mouse IgG-FITC control (fluorescein-labelled goat anti-mouse antibody, secondary reagent alone)” came in with a % AsPC-1 Cells Stained of 1.01%, a % AsPC-1 tumor cell binding of 1.55%, an MFI of 70 MFI and a mfi of 8 mfi. In assay [12], this substance returned a % LS174T tumor cell binding of 1.63% and an MFI of 43 MFI. In assay [13], the % Cell Staining stood at 0.84% and the mfi was determined as 10 mfi. In assay [14], this substance yielded a % Cell Staining of 2.68% and a mfi of 30 mfi. In assay [15], this substance came in with a % Cell Staining of 0.94% and a mfi of 15 mfi. In assay [16], this substance gave a % Cell Staining of 0.83% and a mfi of 14 mfi.
For the substance “Rabbit anti-Human IgG-FITC control (secondary reagent alone) (antibody)”, in [11], the % AsPC-1 tumor cell binding came to 2.05% and the MFI was 59 MFI. In addition, in assay [12], the % binding to LS174T cells worked out at 3.49% and the mfi was 33 mfi. In addition, in [17], the % binding to CFPAC-1 cells turned out to be 2.1% and the mfi amounted to 20 mfi.
